Laboratory results published in the supplement of paper PMC10724198.
± gives the standard deviation of the averaged measurements.

Tested on: Saccharomyces cerevisiae
Experiment: protein stability index of tFT-peptide fusion (C-terminal peptide) (PSI (0-1 scale)); higher = more stable (slower turnover)
Conditions: genetic background: wild type; temperature: 30 C
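Note: PSI is a weighted mean of sequencing reads over stability bins, variants kept only with over 10 reads, mCherry proximal and sfGFP distal, peptide attached via GGGS linker.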

Row | Sequence | protein stability index
1 | TLFQGHQLFKSR | 0.737 ± 0.0068
2 | TLLTIALLTGNL | 0.606 ± 0.063
3 | TLNSSPFTTPTI | 0.717 ± 0.074
4 | TLPFLYILDFFF | 0.589 ± 0.0081
5 | TLPPSPTPPLYP | 0.773 ± 0.031
6 | TLPSHPRLLSLH | 0.6965 ± 0.0013
7 | TLPSPPPRPPPA | 0.702 ± 0.061
8 | TLQRARTGSTPK | 0.684 ± 0.055
9 | TLRVNAMFVEAM | 0.63 ± 0.014
10 | TLSSSPRPLPVP | 0.692 ± 0.051
11 | TLTVCVNQGMTM | 0.668 ± 0.024
12 | TLTVRASLHLEP | 0.636 ± 0.025
13 | TLVPPPSPPPSP | 0.636 ± 0.065
14 | TLWLSGGGGMVI | 0.731 ± 0.04
15 | TNATENKNRHPN | 0.741 ± 0.068
16 | TNGHIVRLGRRV | 0.63 ± 0.011
17 | TNKKQIEPSKIR | 0.763 ± 0.086
18 | TNKNNKKKKEKI | 0.743 ± 0.049
19 | TNQRKKTVAGEK | 0.672 ± 0.025
20 | TNSQTKKKINKI | 0.661 ± 0.038
21 | TNYIPRQSKKGG | 0.71 ± 0.022
22 | TNYKIKDDRLHR | 0.699 ± 0.014
23 | TPCTFPPLIRSP | 0.672 ± 0.039
24 | TPFLPLPSRPRR | 0.726 ± 0.0078
25 | TPHPPAAPPPPL | 0.766 ± 0.082

Row | Sequence | protein stability index
26 | TPLGLSVSSPPT | 0.661 ± 0.14
27 | TPLPLRFRCPYS | 0.639 ± 0.04
28 | TPLPPSALPLPL | 0.724 ± 0.066
29 | TPPSPLPPSPPR | 0.728 ± 0.058
30 | TPQTTQIKNEKH | 0.789 ± 0.14
31 | TPRAALVVSPLV | 0.7484 ± 0.0018
32 | TPRYALVRHHPR | 0.695 ± 0.098
33 | TPSCPALRGDAE | 0.661 ± 0.016
34 | TPSLLSPPLSLA | 0.7036 ± 0.0027
35 | TPSNTRPTLHIP | 0.6404 ± 0.0011
36 | TPSSLLLISPPS | 0.703 ± 0.083
37 | TQLNATVSWTEK | 0.665 ± 0.014
38 | TQSAPGIPGAGE | 0.65 ± 0.025
39 | TQVGTLANASGP | 0.671 ± 0.046
40 | TRAGRGGCASQD | 0.701 ± 0.028
41 | TRCGGRWGEGWR | 0.72 ± 0.028
42 | TRCRLRETISRR | 0.651 ± 0.067
43 | TRCSIPSSLSLM | 0.677 ± 0.016
44 | TRGTRGWGSVVG | 0.735 ± 0.018
45 | TRLKKTEKTKER | 0.739 ± 0.025
46 | TRLSRGTRVEYR | 0.651 ± 0.025
47 | TRLTSATHGVCC | 0.6331 ± 0.0053
48 | TRRAISPEGRWL | 0.645 ± 0.014
49 | TRRGDRVGVGSA | 0.589 ± 0.072
50 | TRYKSFWSLASI | 0.703 ± 0.064

Row | Sequence | protein stability index
51 | TSASLLLSFAVP | 0.6768 ± 0.0022
52 | TSGEIESTSKKK | 0.689 ± 0.055
53 | TSGHSCGRGLLD | 0.64 ± 0.012
54 | TSGLSSAGSRSL | 0.647 ± 0.044
55 | TSGPVSCLCECL | 0.598 ± 0.029
56 | TSKVEVDKGKLE | 0.723 ± 0.051
57 | TSLKGHFGIRLW | 0.6763 ± 0.0021
58 | TSMRRWSGRYGG | 0.743 ± 0.075
59 | TSPLPTLLNDPP | 0.523 ± 0.0081
60 | TSSWGGLVASLR | 0.74 ± 0.04
61 | TSSYFVLFLTSP | 0.635 ± 0.087
62 | TSVSLYWDSNLC | 0.751 ± 0.033
63 | TTGGRGSRVGGR | 0.6975 ± 0.0024
64 | TTQPQVGHHRTS | 0.715 ± 0.021
65 | TTRYKKQNRRKE | 0.74 ± 0.24
66 | TTSRADKEPFRL | 0.675 ± 0.027
67 | TTYYTKPPRPKR | 0.69 ± 0.035
68 | TVACILPLAQSL | 0.706 ± 0.075
69 | TVERRYTGDWGG | 0.726 ± 0.032
70 | TVFDPLGLPALL | 0.617 ± 0.04
71 | TVGGAMSCLGWL | 0.714 ± 0.011
72 | TVSEQWKLLGER | 0.736 ± 0.051
73 | TWMRIRLFRFIP | 0.5744 ± 0.0011
74 | TWVGPIRISNQQ | 0.639 ± 0.01
75 | TYIVVAPTLARL | 0.67 ± 0.095

Row | Sequence | protein stability index
76 | TYSERADLCAQL | 0.678 ± 0.016
77 | TYTELSFKNCVE | 0.713 ± 0.042
78 | VAASGEVVPLMA | 0.604 ± 0.046
79 | VACCKIRSGKSH | 0.687 ± 0.056
80 | VAGGTCGGRACC | 0.694 ± 0.099
81 | VALLRDSCLGVV | 0.671 ± 0.018
82 | VARGVGGGVWRS | 0.704 ± 0.015
83 | VASVWGVGFVAS | 0.694 ± 0.058
84 | VAVRGGSGDWGR | 0.713 ± 0.023
85 | VAVVSATVGASG | 0.68 ± 0.026
86 | VAVWWVQCAGGV | 0.66131 ± 0.00034
87 | VAWRQSVDLGLL | 0.685 ± 0.047
88 | VAWSACRLSLWG | 0.889 ± 0.016
89 | VAWYALPWCVLI | 0.6211 ± 0.0041
90 | VCAVPSILPPPP | 0.6902 ± 0.0061
91 | VCCSDSLCFVVS | 0.601 ± 0.052
92 | VCCSQWPLGFSV | 0.733 ± 0.068
93 | VCEGFRTWALGG | 0.722 ± 0.03
94 | VCESAGERVMGG | 0.705 ± 0.051
95 | VCGFRVGGYIGV | 0.723 ± 0.064
96 | VCGGGEGGERGG | 0.799 ± 0.057
97 | VCGLGGCGGLGV | 0.731 ± 0.039
98 | VCGSRAVRRTEL | 0.712 ± 0.07
99 | VCSGPKSPATQQ | 0.695 ± 0.048
100 | VCSGSGIGNLFE | 0.7912 ± 0.0019

Row | Sequence | protein stability index
101 | VCSPLLIYSVGV | 0.624 ± 0.051
102 | VCVDLFGLRASA | 0.631 ± 0.044
103 | VCVVALCLPHLP | 0.583 ± 0.012
104 | VDFVGFGGVEGG | 0.75 ± 0.059
105 | VDHWVCWCGGWG | 0.7734 ± 0.0072
106 | VDLGLYGYTDIW | 0.685 ± 0.035
107 | VDLVSRVVFQDR | 0.7231 ± 0.0015
108 | VDPAPPRRPPRY | 0.694 ± 0.097
109 | VDSYTGGFDLSW | 0.681 ± 0.062
110 | VECLDTKTTCNI | 0.73 ± 0.035
111 | VEEDPSSQLVIF | 0.599 ± 0.01
112 | VEFGIFACFTRP | 0.6687 ± 0.0019
113 | VERDARGESCSR | 0.747 ± 0.18
114 | VFAFLKPTGKLV | 0.597 ± 0.05
115 | VFCGACRLHLCL | 0.69 ± 0.077
116 | VFCGGGRFRCSR | 0.651 ± 0.023
117 | VFDHVGWPFWSY | 0.714 ± 0.041
118 | VFGWAGVGGDCG | 0.674 ± 0.012
119 | VFHCFVSRRRFC | 0.65 ± 0.022
120 | VFHSSTRDSFVS | 0.751 ± 0.066
121 | VFIVARGLSLIV | 0.536 ± 0.014
122 | VFLRGGVLPLRR | 0.691 ± 0.012
123 | VFLRVLLECLDF | 0.5666 ± 0.0036
124 | VFNLSIPLPSFP | 0.707 ± 0.046
125 | VFPARTALFFPQ | 0.726 ± 0.05

Row | Sequence | protein stability index
126 | VFQFVLGVILGW | 0.5289 ± 0.0035
127 | VFSASCYSNSAR | 0.739 ± 0.032
128 | VFWGGGAVGSVR | 0.69 ± 0.071
129 | VGAAGGVGGSGG | 0.629 ± 0.048
130 | VGACGWRGWCVV | 0.664 ± 0.011
131 | VGAFEGDWGVRH | 0.671 ± 0.099
132 | VGAGLRMRVGEA | 0.669 ± 0.035
133 | VGCRVVPGAGEV | 0.666 ± 0.016
134 | VGEGSGEWKFLD | 0.809 ± 0.06
135 | VGELGVFAPGGK | 0.5 ± 0.1
136 | VGFGFVRSLLVG | 0.6151 ± 0.005
137 | VGGGGAELCVVE | 0.667 ± 0.022
138 | VGGGGECCFLEG | 0.826 ± 0.1
139 | VGGGGRSTGVGK | 0.65 ± 0.044
140 | VGGGKRILVPRS | 0.691 ± 0.12
141 | VGGGLSLGGVWW | 0.691 ± 0.038
142 | VGGGRDLFFFKF | 0.602 ± 0.044
143 | VGGHGGVGGGMG | 0.651 ± 0.026
144 | VGGIVGWFCRGR | 0.698 ± 0.081
145 | VGGLGGVGGGMG | 0.654 ± 0.03
146 | VGGRAAIVRGGW | 0.6853 ± 0.0026
